Measured values: article PMC12069617

How the values were obtained:
[1] = target: progesterone receptor isoform A (PR-A), full-length, Strep II-tagged (human) (UniProt P06401); experiment: SEC-MALS
[2] = target: steroid receptor coactivator 3 (SRC3), full-length, Strep II-tagged (human) (UniProt Q9Y6Q9); experiment: SEC-MALS
Sequence of steroid receptor coactivator 3 (SRC3), full-length, Strep II-tagged (human) (Q9Y6Q9 whole entry): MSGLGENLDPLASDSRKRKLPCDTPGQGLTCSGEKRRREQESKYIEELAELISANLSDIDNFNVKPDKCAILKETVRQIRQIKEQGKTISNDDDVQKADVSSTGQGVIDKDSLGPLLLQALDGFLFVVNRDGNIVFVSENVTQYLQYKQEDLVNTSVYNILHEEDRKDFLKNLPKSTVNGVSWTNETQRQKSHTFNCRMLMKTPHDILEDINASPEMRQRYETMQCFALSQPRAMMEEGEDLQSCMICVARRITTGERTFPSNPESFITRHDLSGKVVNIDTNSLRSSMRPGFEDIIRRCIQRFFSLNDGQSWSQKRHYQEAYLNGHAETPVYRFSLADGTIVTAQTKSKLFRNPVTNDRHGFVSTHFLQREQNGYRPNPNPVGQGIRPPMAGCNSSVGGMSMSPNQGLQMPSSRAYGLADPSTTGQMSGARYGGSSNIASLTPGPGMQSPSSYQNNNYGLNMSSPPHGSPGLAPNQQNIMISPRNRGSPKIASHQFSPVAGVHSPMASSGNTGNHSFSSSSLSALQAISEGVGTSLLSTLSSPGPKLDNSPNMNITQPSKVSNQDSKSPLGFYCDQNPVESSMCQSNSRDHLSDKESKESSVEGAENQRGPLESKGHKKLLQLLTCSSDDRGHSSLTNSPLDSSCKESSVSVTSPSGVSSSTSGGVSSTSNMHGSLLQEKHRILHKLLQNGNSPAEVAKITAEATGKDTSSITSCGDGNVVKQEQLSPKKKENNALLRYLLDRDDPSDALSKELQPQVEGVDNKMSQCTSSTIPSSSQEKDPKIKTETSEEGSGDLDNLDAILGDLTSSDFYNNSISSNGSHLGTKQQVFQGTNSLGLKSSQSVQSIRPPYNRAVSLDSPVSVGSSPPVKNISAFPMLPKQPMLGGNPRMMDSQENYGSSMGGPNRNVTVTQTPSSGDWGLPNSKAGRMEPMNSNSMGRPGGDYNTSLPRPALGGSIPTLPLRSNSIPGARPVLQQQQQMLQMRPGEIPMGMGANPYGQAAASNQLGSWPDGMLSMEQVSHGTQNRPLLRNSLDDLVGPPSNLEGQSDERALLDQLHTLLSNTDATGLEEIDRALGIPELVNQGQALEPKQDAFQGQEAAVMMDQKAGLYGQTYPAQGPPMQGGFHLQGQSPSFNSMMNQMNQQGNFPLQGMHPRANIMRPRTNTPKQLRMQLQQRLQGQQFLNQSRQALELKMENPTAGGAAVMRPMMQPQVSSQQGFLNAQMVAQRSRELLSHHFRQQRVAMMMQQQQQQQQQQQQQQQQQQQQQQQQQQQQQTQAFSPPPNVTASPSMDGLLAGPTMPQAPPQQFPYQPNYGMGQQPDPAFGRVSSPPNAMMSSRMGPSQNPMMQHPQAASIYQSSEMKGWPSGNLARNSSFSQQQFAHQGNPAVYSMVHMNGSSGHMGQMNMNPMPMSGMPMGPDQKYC

Sequence of progesterone receptor isoform A (PR-A), full-length, Strep II-tagged (human) (P06401 165-933): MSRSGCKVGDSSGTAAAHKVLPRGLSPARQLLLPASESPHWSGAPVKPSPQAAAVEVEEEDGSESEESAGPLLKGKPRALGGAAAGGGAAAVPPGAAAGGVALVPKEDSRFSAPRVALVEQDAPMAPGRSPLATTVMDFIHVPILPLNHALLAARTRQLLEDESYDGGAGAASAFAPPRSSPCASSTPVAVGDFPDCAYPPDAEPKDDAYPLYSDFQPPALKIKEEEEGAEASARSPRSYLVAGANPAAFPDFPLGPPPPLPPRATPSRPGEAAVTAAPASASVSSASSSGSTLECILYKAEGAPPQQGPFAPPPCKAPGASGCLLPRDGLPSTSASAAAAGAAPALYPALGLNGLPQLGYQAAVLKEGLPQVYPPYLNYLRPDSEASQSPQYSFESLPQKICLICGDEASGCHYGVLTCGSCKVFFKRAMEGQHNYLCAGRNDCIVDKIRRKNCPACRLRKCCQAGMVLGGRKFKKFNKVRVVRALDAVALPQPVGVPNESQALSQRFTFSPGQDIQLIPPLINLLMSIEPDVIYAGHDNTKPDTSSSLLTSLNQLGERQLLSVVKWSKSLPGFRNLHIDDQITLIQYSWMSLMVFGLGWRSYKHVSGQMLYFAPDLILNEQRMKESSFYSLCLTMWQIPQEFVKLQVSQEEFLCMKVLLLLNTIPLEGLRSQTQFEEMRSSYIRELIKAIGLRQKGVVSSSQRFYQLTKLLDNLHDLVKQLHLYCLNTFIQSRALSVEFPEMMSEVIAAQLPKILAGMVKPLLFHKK

## histone acetyltransferase p300, full-length, Strep II-tagged, Q09472 1-2414
[1]
  stoichiometry N: 0.5 p300 per PR
[2]
  stoichiometry N (p300 per SRC3): 1
